# Experimental data published in paper PMC9482650, “Quantitative fragmentomics allow affinity mapping of interactomes” (Nature Communications, 2022).
# T1: MPDZ_10, O75970
# T1 sequence (O75970 1624-1722, limits assumed, looked up): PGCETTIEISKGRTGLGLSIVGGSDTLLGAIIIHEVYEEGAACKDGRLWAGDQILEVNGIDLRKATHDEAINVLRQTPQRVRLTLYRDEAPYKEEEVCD
# T2: MPDZ_5, O75970
# T2 sequence (O75970 695-796, limits assumed, looked up): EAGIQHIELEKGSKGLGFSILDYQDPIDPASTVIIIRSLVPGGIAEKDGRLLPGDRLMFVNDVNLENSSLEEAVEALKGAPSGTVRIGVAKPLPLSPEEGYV
# T3: TX1BP3, O14907
# T3 sequence (O14907 10-122, limits assumed, looked up): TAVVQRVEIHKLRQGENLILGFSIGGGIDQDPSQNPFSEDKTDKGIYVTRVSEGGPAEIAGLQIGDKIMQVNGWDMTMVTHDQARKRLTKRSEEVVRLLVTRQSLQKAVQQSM
# T4: APBA1_1, Q02410
# T4 sequence (Q02410 651-752, limits assumed, looked up): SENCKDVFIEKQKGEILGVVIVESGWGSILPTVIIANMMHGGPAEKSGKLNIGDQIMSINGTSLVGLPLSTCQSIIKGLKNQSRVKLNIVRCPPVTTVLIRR
# T5: DLG3_3, Q92796
# T5 sequence (Q92796 374-475, limits assumed, looked up): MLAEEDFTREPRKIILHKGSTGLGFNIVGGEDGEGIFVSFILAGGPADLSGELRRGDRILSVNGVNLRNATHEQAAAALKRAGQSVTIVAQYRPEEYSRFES
# T6: APBA1_2, Q02410
# T6 sequence (Q02410 742-832, limits assumed, looked up): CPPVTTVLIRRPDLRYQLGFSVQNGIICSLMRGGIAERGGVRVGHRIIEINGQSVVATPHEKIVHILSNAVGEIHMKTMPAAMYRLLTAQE
# T7: NHERF3_1, Q5T2W1
# T7 sequence (Q5T2W1 4-100, limits assumed, looked up): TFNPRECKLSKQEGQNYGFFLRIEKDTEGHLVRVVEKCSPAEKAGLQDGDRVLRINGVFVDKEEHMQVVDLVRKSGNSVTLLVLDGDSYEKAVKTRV
# T8: ARHGAP21, Q5T5U3
# T8 sequence (Q5T5U3 45-169, limits assumed, looked up): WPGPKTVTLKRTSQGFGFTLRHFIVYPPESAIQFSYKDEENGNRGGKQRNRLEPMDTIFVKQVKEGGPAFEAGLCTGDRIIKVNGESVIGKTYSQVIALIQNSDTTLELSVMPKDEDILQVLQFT
# T9: MPP7, Q5T2T1
# T9 sequence (Q5T2T1 134-230, limits assumed, looked up): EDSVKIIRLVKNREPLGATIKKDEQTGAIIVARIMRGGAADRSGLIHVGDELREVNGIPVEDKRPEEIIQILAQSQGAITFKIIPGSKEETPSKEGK
# T10: PDZD2_2, O15018
# T10 sequence (O15018 329-429, limits assumed, looked up): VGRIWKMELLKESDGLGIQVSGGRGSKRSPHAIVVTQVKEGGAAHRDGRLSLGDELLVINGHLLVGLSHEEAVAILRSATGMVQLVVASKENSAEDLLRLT
# Legend:
# Experiment in all cases: holdup assay
# Parameters in all cases: key: below the threshold = too weak to quantify, mostly under pKd 3.1 to 4
# DLG4_1, P78352 = target: DLG4_1, P78352
# DLG4_1, P78352, sequence (P78352 62-152): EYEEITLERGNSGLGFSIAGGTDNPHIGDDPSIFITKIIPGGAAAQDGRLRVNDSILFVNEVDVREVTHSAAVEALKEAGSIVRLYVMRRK
# NOS1, P29475 = target: NOS1, P29475
# NOS1, P29475, sequence (P29475 9-101): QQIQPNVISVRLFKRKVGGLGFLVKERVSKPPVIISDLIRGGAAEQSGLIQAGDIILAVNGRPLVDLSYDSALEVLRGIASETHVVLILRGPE
# MPDZ_10, O75970 = target: T1, MPDZ_10, O75970
# MPDZ_5, O75970 = target: T2, MPDZ_5, O75970
# IL16_1, Q14005 = target: IL16_1, Q14005
# IL16_1, Q14005, sequence (Q14005 210-306): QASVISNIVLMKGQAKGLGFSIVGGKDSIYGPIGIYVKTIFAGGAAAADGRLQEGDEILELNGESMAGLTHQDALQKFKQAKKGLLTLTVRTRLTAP
# GRIP2_5, Q9C0E4 = target: GRIP2_5, Q9C0E4
# GRIP2_5, Q9C0E4, sequence (Q9C0E4 544-642): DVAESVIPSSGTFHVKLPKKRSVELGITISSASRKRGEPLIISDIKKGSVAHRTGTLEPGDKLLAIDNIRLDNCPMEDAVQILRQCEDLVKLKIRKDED
# TX1BP3, O14907 = target: T3, TX1BP3, O14907
# PICK1, Q9NRD5 = target: PICK1, Q9NRD5
# PICK1, Q9NRD5, sequence (Q9NRD5 17-115): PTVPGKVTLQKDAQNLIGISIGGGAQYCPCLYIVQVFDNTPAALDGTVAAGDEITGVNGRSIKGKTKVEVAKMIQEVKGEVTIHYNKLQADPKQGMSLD
# MAGI2_3, Q86UL8 = target: MAGI2_3, Q86UL8
# MAGI2_3, Q86UL8, sequence (Q86UL8 600-682): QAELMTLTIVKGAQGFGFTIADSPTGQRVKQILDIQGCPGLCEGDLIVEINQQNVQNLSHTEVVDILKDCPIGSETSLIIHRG
# PARD3_3, Q8TEW0 = target: PARD3_3, Q8TEW0
# PARD3_3, Q8TEW0, sequence (Q8TEW0 582-685): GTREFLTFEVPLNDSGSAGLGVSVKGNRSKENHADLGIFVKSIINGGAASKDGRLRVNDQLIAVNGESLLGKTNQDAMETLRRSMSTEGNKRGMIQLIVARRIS
# NHERF2_2, Q15599 = target: NHERF2_2, Q15599
# NHERF2_2, Q15599, sequence (Q15599 142-238): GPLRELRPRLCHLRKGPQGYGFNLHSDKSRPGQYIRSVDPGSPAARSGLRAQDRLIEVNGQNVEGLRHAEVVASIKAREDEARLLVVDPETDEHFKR
# MAST2, Q6P0Q8 = target: MAST2, Q6P0Q8
# MAST2, Q6P0Q8, sequence (Q6P0Q8 1099-1202): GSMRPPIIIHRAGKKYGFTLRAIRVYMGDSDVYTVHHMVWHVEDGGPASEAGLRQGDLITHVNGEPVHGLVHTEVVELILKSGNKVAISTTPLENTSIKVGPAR
# GRIP2_3, Q9C0E4 = target: GRIP2_3, Q9C0E4
# GRIP2_3, Q9C0E4, sequence (Q9C0E4 238-339): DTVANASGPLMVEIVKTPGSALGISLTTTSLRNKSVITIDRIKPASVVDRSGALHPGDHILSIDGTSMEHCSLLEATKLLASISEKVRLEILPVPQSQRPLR
# LDB3, O75112 = target: LDB3, O75112
# LDB3, O75112, sequence (O75112 1-94): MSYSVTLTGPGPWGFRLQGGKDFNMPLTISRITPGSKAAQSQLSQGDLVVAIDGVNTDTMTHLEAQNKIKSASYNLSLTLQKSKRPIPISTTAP
# APBA1_1, Q02410 = target: T4, APBA1_1, Q02410
# NHERF4_4, Q86UT5 = target: NHERF4_4, Q86UT5
# NHERF4_4, Q86UT5, sequence (Q86UT5 464-550): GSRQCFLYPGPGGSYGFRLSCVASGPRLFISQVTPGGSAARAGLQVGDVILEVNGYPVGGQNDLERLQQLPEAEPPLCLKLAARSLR
# NHERF4_2, Q86UT5 = target: NHERF4_2, Q86UT5
# NHERF4_2, Q86UT5, sequence (Q86UT5 220-308): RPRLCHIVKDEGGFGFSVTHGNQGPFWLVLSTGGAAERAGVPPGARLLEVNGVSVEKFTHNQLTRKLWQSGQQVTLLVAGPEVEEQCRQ
# MAGI1_1, Q96QZ7 = target: MAGI1_1, Q96QZ7
# MAGI1_1, Q96QZ7, sequence (Q96QZ7 1-106): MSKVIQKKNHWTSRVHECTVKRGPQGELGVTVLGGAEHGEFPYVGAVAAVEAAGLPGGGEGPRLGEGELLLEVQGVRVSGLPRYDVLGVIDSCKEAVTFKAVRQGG
# DLG3_3, Q92796 = target: T5, DLG3_3, Q92796
# Inadl_4, Q8NI35 = target: Inadl_4, Q8NI35
# Inadl_4, Q8NI35, sequence (Q8NI35 547-651): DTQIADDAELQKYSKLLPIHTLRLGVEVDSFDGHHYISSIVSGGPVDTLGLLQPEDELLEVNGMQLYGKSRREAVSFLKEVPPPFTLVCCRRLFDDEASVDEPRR
# APBA1_2, Q02410 = target: T6, APBA1_2, Q02410
# NHERF3_1, Q5T2W1 = target: T7, NHERF3_1, Q5T2W1
# ARHGAP21, Q5T5U3 = target: T8, ARHGAP21, Q5T5U3
# SCRIB_2, Q14160 = target: SCRIB_2, Q14160
# SCRIB_2, Q14160, sequence (Q14160 857-960): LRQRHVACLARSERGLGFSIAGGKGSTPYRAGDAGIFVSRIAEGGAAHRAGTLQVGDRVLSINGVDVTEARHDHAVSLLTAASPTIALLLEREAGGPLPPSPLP
# MPP7, Q5T2T1 = target: T9, MPP7, Q5T2T1
# GRID2IP_2, A4D2P6 = target: GRID2IP_2, A4D2P6
# GRID2IP_2, A4D2P6, sequence (A4D2P6 272-370): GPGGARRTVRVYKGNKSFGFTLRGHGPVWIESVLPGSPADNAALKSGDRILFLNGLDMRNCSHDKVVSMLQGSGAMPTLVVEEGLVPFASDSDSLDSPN
# PDZD2_2, O15018 = target: T10, PDZD2_2, O15018
# [1] = plain residues with an end cap or a label only (N-terminal biotin on a linker: ahx)
# [2] = plain residues with an end cap or a label only (N-terminal biotin on a linker: ado-ado)
binder,measurement,setting,value
"EKQAKGDTEF [CACYBP, Q9HB71]",pKd,"DLG4_1, P78352; [1]",below the threshold
same,pKd,"NOS1, P29475; [1]",below the threshold
same,pKd,"MPDZ_10, O75970; [1]",below the threshold
same,pKd,"MPDZ_5, O75970; [1]",below the threshold
same,pKd,"IL16_1, Q14005; [1]",below the threshold
same,pKd,"GRIP2_5, Q9C0E4; [1]",below the threshold
same,pKd,"TX1BP3, O14907; [1]",below the threshold
same,pKd,"PICK1, Q9NRD5; [1]",below the threshold
same,pKd,"MAGI2_3, Q86UL8; [1]",below the threshold
same,pKd,"PARD3_3, Q8TEW0; [1]",below the threshold
same,pKd,"NHERF2_2, Q15599; [1]",3.55
same,pKd,"MAST2, Q6P0Q8; [1]",below the threshold
same,pKd,"GRIP2_3, Q9C0E4; [1]",below the threshold
same,pKd,"LDB3, O75112; [1]",below the threshold
same,pKd,"APBA1_1, Q02410; [1]",below the threshold
same,pKd,"NHERF4_4, Q86UT5; [1]",below the threshold
same,pKd,"NHERF4_2, Q86UT5; [1]",below the threshold
same,pKd,"MAGI1_1, Q96QZ7; [1]",below the threshold
same,pKd,"DLG3_3, Q92796; [1]",below the threshold
same,pKd,"Inadl_4, Q8NI35; [1]",below the threshold
same,pKd,"APBA1_2, Q02410; [1]",below the threshold
same,pKd,"NHERF3_1, Q5T2W1; [1]",below the threshold
same,pKd,"ARHGAP21, Q5T5U3; [1]",below the threshold
same,pKd,"SCRIB_2, Q14160; [1]",below the threshold
same,pKd,"MPP7, Q5T2T1; [1]",below the threshold
same,pKd,"GRID2IP_2, A4D2P6; [1]",below the threshold
same,pKd,"PDZD2_2, O15018; [1]",below the threshold
"MHIQEKGFHV [EPHA6, Q9UF33]",pKd,"DLG4_1, P78352; [2]",below the threshold
same,pKd,"NOS1, P29475; [2]",3.62
same,pKd,"MPDZ_10, O75970; [2]",below the threshold
same,pKd,"MPDZ_5, O75970; [2]",below the threshold
same,pKd,"IL16_1, Q14005; [2]",below the threshold
same,pKd,"GRIP2_5, Q9C0E4; [2]",below the threshold
same,pKd,"TX1BP3, O14907; [2]",below the threshold
same,pKd,"PICK1, Q9NRD5; [2]",4.18
same,pKd,"MAGI2_3, Q86UL8; [2]",below the threshold
same,pKd,"PARD3_3, Q8TEW0; [2]",below the threshold
same,pKd,"NHERF2_2, Q15599; [2]",below the threshold
same,pKd,"MAST2, Q6P0Q8; [2]",below the threshold
same,pKd,"GRIP2_3, Q9C0E4; [2]",below the threshold
same,pKd,"LDB3, O75112; [2]",below the threshold
same,pKd,"APBA1_1, Q02410; [2]",below the threshold
same,pKd,"NHERF4_4, Q86UT5; [2]",below the threshold
same,pKd,"NHERF4_2, Q86UT5; [2]",below the threshold
same,pKd,"MAGI1_1, Q96QZ7; [2]",below the threshold
same,pKd,"DLG3_3, Q92796; [2]",below the threshold
same,pKd,"Inadl_4, Q8NI35; [2]",below the threshold
same,pKd,"APBA1_2, Q02410; [2]",below the threshold
same,pKd,"NHERF3_1, Q5T2W1; [2]",3.71
same,pKd,"ARHGAP21, Q5T5U3; [2]",below the threshold
same,pKd,"SCRIB_2, Q14160; [2]",below the threshold
same,pKd,"MPP7, Q5T2T1; [2]",below the threshold
same,pKd,"GRID2IP_2, A4D2P6; [2]",below the threshold
same,pKd,"PDZD2_2, O15018; [2]",below the threshold
"VLYPREGTEV [FOXI1, Q12951]",pKd,"DLG4_1, P78352; [2]",4.48
same,pKd,"NOS1, P29475; [2]",4.05
same,pKd,"MPDZ_10, O75970; [2]",3.49
same,pKd,"MPDZ_5, O75970; [2]",3.66
same,pKd,"IL16_1, Q14005; [2]",4
same,pKd,"GRIP2_5, Q9C0E4; [2]",below the threshold
same,pKd,"TX1BP3, O14907; [2]",3.73
same,pKd,"PICK1, Q9NRD5; [2]",4.21
same,pKd,"MAGI2_3, Q86UL8; [2]",below the threshold
same,pKd,"PARD3_3, Q8TEW0; [2]",below the threshold
same,pKd,"NHERF2_2, Q15599; [2]",3.48
same,pKd,"MAST2, Q6P0Q8; [2]",5.27
same,pKd,"GRIP2_3, Q9C0E4; [2]",below the threshold
same,pKd,"LDB3, O75112; [2]",below the threshold
same,pKd,"APBA1_1, Q02410; [2]",below the threshold
same,pKd,"NHERF4_4, Q86UT5; [2]",below the threshold
same,pKd,"NHERF4_2, Q86UT5; [2]",below the threshold
same,pKd,"MAGI1_1, Q96QZ7; [2]",below the threshold
same,pKd,"DLG3_3, Q92796; [2]",3.8
same,pKd,"Inadl_4, Q8NI35; [2]",below the threshold
same,pKd,"APBA1_2, Q02410; [2]",4.51
same,pKd,"NHERF3_1, Q5T2W1; [2]",3.7
same,pKd,"ARHGAP21, Q5T5U3; [2]",4
same,pKd,"SCRIB_2, Q14160; [2]",4.16
same,pKd,"MPP7, Q5T2T1; [2]",below the threshold
same,pKd,"GRID2IP_2, A4D2P6; [2]",4.11
same,pKd,"PDZD2_2, O15018; [2]",4.93
